Experiments:
Assay in all cases: FRET or BRET; FLIM-FRET by TCSPC in live co-transfected HEK293T cells, 37°C, L-15 medium; lifetime of the mT2 donor against donor alone; SYFP2 or EYFP fusion as acceptor
BAK-mTurquoise2 = BAK-mTurquoise2 (UniProt Q16611)
BAK-SYFP2 = biological target: T1, BAK-SYFP2 (UniProt Q16611 1-211); conditions: partners not purified
T1 construct: BAK, pro-apoptotic BCL2 family protein; amplified by PCR from Flag-tagged BAK; Cloned with EcoRI and XhoI into the SYFP2 plasmid; also called SYFP2-BAK; source: HEK293T or IHH cells, transfected, in live cells
T1 sequence (looked up): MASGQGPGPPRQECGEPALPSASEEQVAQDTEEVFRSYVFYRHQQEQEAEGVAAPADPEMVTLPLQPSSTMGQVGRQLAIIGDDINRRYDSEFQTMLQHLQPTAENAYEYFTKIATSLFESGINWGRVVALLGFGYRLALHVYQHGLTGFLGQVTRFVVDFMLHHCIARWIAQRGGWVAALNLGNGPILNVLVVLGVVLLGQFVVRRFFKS

BAX-SYFP2 = biological target: T2, BAX-SYFP2 (UniProt Q07812 1-192); conditions: partners not purified
T2 construct: BAX, pro-apoptotic BCL2 family protein; amplified by PCR from Flag-tagged BAX; Cloned with EcoRI and XhoI into the SYFP2 plasmid; also called SYFP2-tagged BAX; source: HEK293T, transfected, in live cells
T2 sequence (Q07812 whole entry): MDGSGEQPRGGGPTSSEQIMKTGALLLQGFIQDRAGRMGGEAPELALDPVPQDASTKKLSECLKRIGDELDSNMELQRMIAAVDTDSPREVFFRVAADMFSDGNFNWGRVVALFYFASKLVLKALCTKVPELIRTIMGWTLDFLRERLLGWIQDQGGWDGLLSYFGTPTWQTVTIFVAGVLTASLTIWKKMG

BAX-mTurquoise2 = biological target: T3, BAX-mTurquoise2 (UniProt Q07812 1-192); conditions: partners not purified
T3 construct: BAX, pro-apoptotic BCL2 family protein; amplified by PCR from Flag-tagged BAX; Cloned with EcoRI and XhoI into the mTurquoise2 plasmid; also called BAX-mT2; mT2-fused BAX; source: HEK293T, transfected, in live cells
T3 sequence (Q07812 whole entry, the tested form may be a part): as the sequence (Q07812 whole entry) above

For “free SYFP2 (Super Yellow Fluorescent Protein 2)”, the mean FRET efficiency (BAK-mTurquoise2) was < 0.1%.

B1: p40MET-mTurquoise2 (domain or fragment, mouse, UniProt P16056 1001-1374, looked up)
chain: YRATFPEDQFPNSSQNGACRQVQYPLTDLSPILTSGDSDISSPLLQNTVHIDLSALNPELVQAVQHVVIGPSSLIVHFNEVIGRGHFGCVYHGTLLDNDGKKIHCAVKSLNRITDIEEVSQFLTEGIIMKDFSHPNVLSLLGICLRSEGSPLVVLPYMKHGDLRNFIRNETHNPTVKDLIGFGLQVAKGMKYLASKKFVHRDLAARNCMLDEKFTVKVADFGLARDMYDKEYYSVHNKTGAKLPVKWMALESLQTQKFTTKSDVWSFGVLLWELMTRGAPPYPDVNTFDITIYLLQGRRLLQPEYCPDALYEVMLKCWHPKAEMRPSFSELVSRISSIFSTFIGEHYVHVNATYVNVKCVAPYPSLLPSQDNID
notes: limits worked out from the stated caspase sites; also called p40MET-mT2; mT2-p40MET; source: HEK293T or IHH cells, transfected, in live cells
With B1 the “mean FRET efficiency” value (BAK-SYFP2) was 4% and the “mean FRET efficiency” value (BAX-SYFP2) was 2.5%.

B2: p40MET-SYFP2 (domain or fragment, mouse, UniProt P16056 1001-1374, looked up)
chain: YRATFPEDQFPNSSQNGACRQVQYPLTDLSPILTSGDSDISSPLLQNTVHIDLSALNPELVQAVQHVVIGPSSLIVHFNEVIGRGHFGCVYHGTLLDNDGKKIHCAVKSLNRITDIEEVSQFLTEGIIMKDFSHPNVLSLLGICLRSEGSPLVVLPYMKHGDLRNFIRNETHNPTVKDLIGFGLQVAKGMKYLASKKFVHRDLAARNCMLDEKFTVKVADFGLARDMYDKEYYSVHNKTGAKLPVKWMALESLQTQKFTTKSDVWSFGVLLWELMTRGAPPYPDVNTFDITIYLLQGRRLLQPEYCPDALYEVMLKCWHPKAEMRPSFSELVSRISSIFSTFIGEHYVHVNATYVNVKCVAPYPSLLPSQDNID
notes: limits worked out from the stated caspase sites; also called SYFP2-p40MET; source: HEK293T or IHH cells, transfected, in live cells
B2 was tested, and the “mean FRET efficiency” value (BAX-mTurquoise2) was 4.3%.
